Test results reported in article doi:10.1101/2025.03.16.643542 (bioRxiv, 2025).

Target: epidermal growth factor receptor (EGFR) on EGFR^hi A431 cells (Homo sapiens, A431 cells, UniProt P00533)
Assay: flow cytometry on cells

B1: nanobody 5B12 (VHH)
VHH: QVQLQESGGGLVQTGDSLRLSCAASGGTLTSYNMGWFRQAPGKDREFVAGISWSGGTGTYYADSVKGRFTISTDNAKNTVYLQMDSLKPDDTAVYYCAVRRRAYSVYTRPGLYDYWGQGTQVTVSS
- EC50: 4.7 nM

B2: nanobody 5B1 (VHH)
VHH: QVQLQESGGGLVQAGDSLRLSCAASGRTFSTYTMGWFRQAPGKEREFVAGIGYSDDNTYYTDSVKGRFTVSRGSAKNTVYLQMNSLKPEDTAVYYCAARVGDVVFTIADNYAYWGQGTQVTVSS
- EC50: 76.9 nM
